Measurements: patent publication US20090318535A1 (NEW YORK UNIVERSITY, published 2009)

Columns and labels:
[1] = biological target: T1, HA-BimEL (S94/98A) mutant (human, UniProt O43521 1-198); test: co-immunoprecipitation with HA resin from transfected HEK293 cells (FIG. 2A)
T1 construct: HA-tagged, expressed in HEK293
Experimental: Twenty-four hours after transfection, cells were treated for 3 hours with PMA and MG 132. Whole cell extracts (WCE) were subjected to immunoprecipitation using HA resin (α-HA) followed by immunoblotting with indicated antibodies.

[2] = biological target: T2, human BimEL (Bcl-2-Interacting Mediator of cell death, Extra Long isoform) (human, UniProt O43521 1-198, phosphorylated in cells after PMA treatment (Ser69, Ser93, Ser94, Ser98 as the filing reports)); test: co-immunoprecipitation with FLAG resin from HEK293 cells expressing FLAG-tagged F-box proteins, immunoblot for BimEL
T2 construct: 198 aa protein, GenBank AAC39593; also called HA-BimEL WT; wild-type BimEL
Experimental: For these binding studies, HEK293 cells were transfected with the indicated FLAG-tagged Fbw family F-box protein constructs (in FIG. 1). Twenty-four hours after transfection cells were treated for 3 hours with PMA (20 nM) and the proteasome inhibitor MG132 (10 μM) then harvested and lysed. Whole cell extracts (WCE) were subjected to immunoprecipitation using FLAG resin (α-FLAG), followed by immunoblotting with indicated antibodies (EV: empty vector).

B1: human β-TrCP1 (beta-transducin repeat containing protein 1) (other)
chain: MDPAEAVLQEKALKFMCSMPRSLWLGCSSLADSMPSLRCLYNPGTGALTAFQNSSEREDCNNGEPPRKIIPEKNSLRQTYNSCARLCLNQETVCLASTAMKTENCVAKTKLANGTSSMIVPKQRKLSASYEKEKELCVKYFEQWSESDQVEFVEHLISQMCHYQHGHINSYLKPMLQRDFITALPARGLDHIAENILSYLDAKSLCAAELVCKEWYRVTSDGMLWKKLIERMVRTDSLWRGLAERRGWGQYLFKNKPPDGNAPPNSFYRALYPKIIQDIETIESNWRCGRHSLQRIHCRSETSKGVYCLQYDDQKIVSGLRDNTIKIWDKNTLECKRILTGHTGSVLCLQYDERVIITGSSDSTVRVWDVNTGEMLNTLIHHCEAVLHLRFNNGMMVTCSKDRSIAVWDMASPTDITLRRVLVGHRAAVNVVDFDDKYIVSASGDRTIKVWNTSTCEFVRTLNGHKRGIACLQYRDRLVVSGSSDNTIRLWDIECGACLRVLEGHEELVRCIRFDNKRIVSGAYDGKIKVWDLVAALDPRAPAGTLCLRTLVEHSGRVFRLQFDEFQIVSSSHDDTILIWDFLNDPAAQAEPPRSPSRTYTYISR
notes: also called Fbp1
binding result [1]: no binding | binding result [2]: binds
